Measurements: paper doi:10.1101/2021.04.03.438258

Molecular target: SARS-CoV-2 HexaPro S (SARS-CoV-2)
Assay: cryo-EM structure

“SARS-CoV-2 HexaPro S (domain or fragment)” showed a stoichiometry N of 3.
